Data from patent US20240002531A1 (ONO PHARMACEUTICAL, published 2024).

Tests used:
[1] = molecular target: T1, HER2 peptide p603-622 (amino acids 603 to 622 of human HER2) (human); assay: SPR Biacore, mAb on chip, peptide analyte, 1:1 fit; Table 2 (deletion mutants series)
T1 construct: Synthetic peptide; also called wild-type HER2 peptide
T1 peptide: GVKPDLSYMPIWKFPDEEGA

[2] = molecular target: T2, HER2-W614A expressed on CHO-K1 cells (human, UniProt P04626 23-1255); assay: flow cytometry on CHO-K1 cells expressing HER2-W614A
T2 construct: also called W614A point mutant; not shown: PA tag at the N terminus; RAP tag and MAP tag at the C terminus

[3] = molecular target: T3, S609A peptide (HER2 603-622 with S609A) (human); assay: SPR Biacore, mAb on chip, peptide analyte, 1:1 fit;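 note: binding measured at 25 °C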
T3 peptide: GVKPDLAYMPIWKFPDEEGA

[4] = molecular target: T4, P606A peptide (HER2 603-622 with P606A) (human); assay: SPR Biacore, mAb on chip, peptide analyte, 1:1 fit;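 note: binding measured at 25 °C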
T4 peptide: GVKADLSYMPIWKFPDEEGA

[5] = molecular target: T5, G621A peptide (HER2 603-622 with G621A) (human); assay: SPR Biacore, mAb on chip, peptide analyte, 1:1 fit;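 note: binding measured at 25 °C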
T5 peptide: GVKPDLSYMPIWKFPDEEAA

[6] = molecular target: T6, M611A peptide (HER2 603-622 with M611A) (human); assay: SPR Biacore, mAb on chip, peptide analyte, 1:1 fit;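 note: binding measured at 25 °C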
T6 peptide: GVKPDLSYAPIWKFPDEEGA

[7] = molecular target: T7, D607A peptide (HER2 603-622 with D607A) (human); assay: SPR Biacore, mAb on chip, peptide analyte, 1:1 fit;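 note: binding measured at 25 °C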
T7 peptide: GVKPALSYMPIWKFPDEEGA

[8] = molecular target: T8, P612A peptide (HER2 603-622 with P612A) (human); assay: SPR Biacore, mAb on chip, peptide analyte, 1:1 fit;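 note: binding measured at 25 °C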
T8 peptide: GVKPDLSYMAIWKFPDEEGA

[9] = molecular target: T9, E620A peptide (HER2 603-622 with E620A) (human); assay: SPR Biacore, mAb on chip, peptide analyte, 1:1 fit
T9 peptide: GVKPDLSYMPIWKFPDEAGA

[10] = molecular target: T10, P617A peptide (HER2 603-622 with P617A) (human); assay: SPR Biacore, mAb on chip, peptide analyte, 1:1 fit
T10 peptide: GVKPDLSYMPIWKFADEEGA

[11] = molecular target: T11, V604A peptide (HER2 603-622 with V604A) (human); assay: SPR Biacore, mAb on chip, peptide analyte, 1:1 fit
T11 peptide: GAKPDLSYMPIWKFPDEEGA

HER2 peptide p611-622 = molecular target: T12, HER2 peptide p611-622 (human); assay: SPR Biacore, mAb on chip, peptide analyte, 1:1 fit;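 note: all binding measurements run at 25 °C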
T12 peptide: MPIWKFPDEEGA

HER2 peptide p613-619 = molecular target: T13, HER2 peptide p613-619 (human); assay: SPR Biacore, mAb on chip, peptide analyte, 1:1 fit;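 note: all binding measurements run at 25 °C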
T13 peptide: IWKFPDE

HER2 peptide p612-620 = molecular target: T14, HER2 peptide p612-620 (human); assay: SPR Biacore, mAb on chip, peptide analyte, 1:1 fit;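 note: all binding measurements run at 25 °C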
T14 peptide: PIWKFPDEE

HER2 peptide p611-621 = molecular target: T15, HER2 peptide p611-621 (human); assay: SPR Biacore, mAb on chip, peptide analyte, 1:1 fit;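 note: all binding measurements run at 25 °C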
T15 peptide: MPIWKFPDEEG

HER2 peptide p609-619 = molecular target: T16, HER2 peptide p609-619 (human); assay: SPR Biacore, mAb on chip, peptide analyte, 1:1 fit;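 note: all binding measurements run at 25 °C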
T16 peptide: SYMPIWKFPDE

HER2 peptide p613-618 = molecular target: T17, HER2 peptide p613-618 (human); assay: SPR Biacore, mAb on chip, peptide analyte, 1:1 fit;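 note: all binding measurements run at 25 °C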
T17 peptide: IWKFPD

HER2 peptide p609-622 = molecular target: T18, HER2 peptide p609-622 (human); assay: SPR Biacore, mAb on chip, peptide analyte, 1:1 fit
T18 peptide: SYMPIWKFPDEEGA

HER2 peptide p614-620 = molecular target: T19, HER2 peptide p614-620 (human); assay: SPR Biacore, mAb on chip, peptide analyte, 1:1 fit
T19 peptide: WKFPDEE

HER2 peptide p610-619 = molecular target: T20, HER2 peptide p610-619 (human); assay: SPR Biacore, mAb on chip, peptide analyte, 1:1 fit
T20 peptide: YMPIWKFPDE

HER2 peptide p610-621 = molecular target: T21, HER2 peptide p610-621 (human); assay: SPR Biacore, mAb on chip, peptide analyte, 1:1 fit
T21 peptide: YMPIWKFPDEEG

HER2 peptide p610-622 = molecular target: T22, HER2 peptide p610-622 (human); assay: SPR Biacore, mAb on chip, peptide analyte, 1:1 fit
T22 peptide: YMPIWKFPDEEGA

HER2 peptide p613-620 = molecular target: T23, HER2 peptide p613-620 (human); assay: SPR Biacore, mAb on chip, peptide analyte, 1:1 fit
T23 peptide: IWKFPDEE

B1: H2Mab-214 antibody (antibody, V domains shown)
VH: QVTLKESGPGILQPSQTLSLTCSFSGFSLSTSGMGVSWIRQPSGKGLEWLAHIFWDDDKRYNPSLKSRLTISKDTSRNKVFLKITSVDTADTATYYCARRVVATDWYFDVWGAGTTVTVSS
VL: DIVLTQSPASLAVSLGQRATISCRASESVEYYGTTLMQWYQQKPGQPPKLLIYAASKVESGVPARFSGSGSGTDFSLNIHPVEEDDVAMYFCQQSRKVPLTFGAGTKLELKR
notes: Mouse monoclonal from a hybridoma (immunogen HER2ec made in LN229 cells); also called antibody of the present invention
B1 was tested, and the kon [1] was 234000 M⁻¹ s⁻¹, the binding result [2] was “binds” and the Kd [3] was 33.2 nM. For the same binder, the koff [3] was 0.00659 s⁻¹, the kon [3] was 199000 M⁻¹ s⁻¹ and the Kd [4] was 17.6 nM. The koff [4] was 0.00578 s⁻¹, the kon [4] was 329000 M⁻¹ s⁻¹ and the Kd [5] was 20.4 nM. The koff [5] was 0.0059 s⁻¹, the kon [5] was 290000 M⁻¹ s⁻¹ and the Kd [6] was 34.1 nM. The koff [6] was 0.00774 s⁻¹, the kon [6] was 227000 M⁻¹ s⁻¹ and the Kd [7] was 17.6 nM. For the same binder, the koff [7] was 0.00588 s⁻¹, the kon [7] was 334000 M⁻¹ s⁻¹ and the Kd [8] was 46.8 nM. For the same binder, the koff [8] was 0.0125 s⁻¹, the kon [8] was 267000 M⁻¹ s⁻¹ and the Kd [9] was 42 nM. For the same binder, the koff [9] was 0.00762 s⁻¹, the kon [9] was 182000 M⁻¹ s⁻¹ and the Kd [10] was 43.9 nM. For the same binder, the koff [10] was 0.00716 s⁻¹, the kon [10] was 163000 M⁻¹ s⁻¹ and the Kd [11] was 22.7 nM. For the same binder, the koff [11] was 0.00619 s⁻¹, the kon [11] was 273000 M⁻¹ s⁻¹ and the Kd (HER2 peptide p611-622) was 23.9 nM. The koff (HER2 peptide p611-622) was 0.0108 s⁻¹, the kon (HER2 peptide p611-622) was 451000 M⁻¹ s⁻¹ and the Kd (HER2 peptide p613-619) was 1610 nM. It also gave a koff (HER2 peptide p613-619) of 0.0136 s⁻¹, a kon (HER2 peptide p613-619) of 8450 M⁻¹ s⁻¹ and a Kd (HER2 peptide p612-620) of 23.7 nM. The koff (HER2 peptide p612-620) was 0.0179 s⁻¹, the kon (HER2 peptide p612-620) was 754000 M⁻¹ s⁻¹ and the Kd (HER2 peptide p611-621) was 16.8 nM. The koff (HER2 peptide p611-621) was 0.00961 s⁻¹, the kon (HER2 peptide p611-621) was 571000 M⁻¹ s⁻¹ and the Kd (HER2 peptide p609-619) was 5.76 nM. It also gave a koff (HER2 peptide p609-619) of 0.00449 s⁻¹, a kon (HER2 peptide p609-619) of 779000 M⁻¹ s⁻¹ and a Kd (HER2 peptide p613-618) of 915 nM. It also gave a koff (HER2 peptide p613-618) of 0.013 s⁻¹, a kon (HER2 peptide p613-618) of 14200 M⁻¹ s⁻¹ and a Kd (HER2 peptide p609-622) of 9.37 nM. The koff (HER2 peptide p609-622) was 0.00526 s⁻¹, the kon (HER2 peptide p609-622) was 561000 M⁻¹ s⁻¹ and the Kd (HER2 peptide p614-620) was 41200 nM. The koff (HER2 peptide p614-620) was 0.0152 s⁻¹, the kon (HER2 peptide p614-620) was 370 M⁻¹ s⁻¹ and the Kd (HER2 peptide p610-619) was 5.74 nM. The koff (HER2 peptide p610-619) was 0.0051 s⁻¹, the kon (HER2 peptide p610-619) was 889000 M⁻¹ s⁻¹ and the Kd (HER2 peptide p610-621) was 8.57 nM. The koff (HER2 peptide p610-621) was 0.00519 s⁻¹, the kon (HER2 peptide p610-621) was 679000 M⁻¹ s⁻¹ and the Kd (HER2 peptide p610-622) was 38.8 nM. For the same binder, the koff (HER2 peptide p610-622) was 0.00598 s⁻¹, the kon (HER2 peptide p610-622) was 154000 M⁻¹ s⁻¹ and the Kd (HER2 peptide p613-620) was 2310 nM. For the same binder, the koff (HER2 peptide p613-620) was 0.01 s⁻¹ and the kon (HER2 peptide p613-620) was 4340 M⁻¹ s⁻¹.
